The values that follow are results of earlier work, collected in publication PMC3288358 (ACS Chemical Biology, 2011).

The target in one data set is hMc3R (Homo sapiens, UniProt P41968). As to conditions: read-out: Mc3R EC50; cAMP assay; data adapted from ref Wilczynski et al. ([34]). Background: cAMP levels reflect the balance of adenylyl cyclase and phosphodiesterase activity.
For a further data set, the system named is male Long-Evans rats. As to conditions: requires higher minimal doses for activation; ref [8].

Chain of hMc3R (P41968 whole entry): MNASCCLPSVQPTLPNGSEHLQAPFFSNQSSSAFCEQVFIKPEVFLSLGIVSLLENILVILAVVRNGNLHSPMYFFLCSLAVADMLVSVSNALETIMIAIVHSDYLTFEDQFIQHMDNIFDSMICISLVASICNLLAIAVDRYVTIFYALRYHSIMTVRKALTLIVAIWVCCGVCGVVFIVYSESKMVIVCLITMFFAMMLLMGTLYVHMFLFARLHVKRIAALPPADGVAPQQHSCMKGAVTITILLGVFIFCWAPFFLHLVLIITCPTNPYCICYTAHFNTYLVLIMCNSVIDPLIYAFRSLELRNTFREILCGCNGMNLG

The term EC50 denotes the concentration at which the effect is half-maximal. As for “AgRP(87-132): Truncated AgRP lacking the four residue N-terminal segment, N-terminal acetylated”, in the data set with hMc3R, the EC50 was 8.9 ± 0.2 nM. As for SHU9119, the “Long-term feeding response compared with AgRP” value in the data set with male Long-Evans rats was “long-term response similar to AgRP”.
